For one substance, Geometric Mean : Comp-APC-A results are on record in US20240239894A1, “THERAPEUTIC BINDING MOLECULES” (MedImmune Limited, priority 2020, published 2024).

Assay [1] concerns the target human B7-H4 on cells (human) (UniProt Q7Z7D3). Kind of assay: flow cytometry, AF647-labelled antibody at 312 ng/ml, SKBR-3 cells. A general note: A flow cytometer gives signals particle by particle.
Assay [2] shares this target. Kind of assay: flow cytometry, AF647-labelled antibody at 78 ng/ml, SKBR-3 cells.

Sequence of human B7-H4 on cells (human) (Q7Z7D3 25-282 limits assumed): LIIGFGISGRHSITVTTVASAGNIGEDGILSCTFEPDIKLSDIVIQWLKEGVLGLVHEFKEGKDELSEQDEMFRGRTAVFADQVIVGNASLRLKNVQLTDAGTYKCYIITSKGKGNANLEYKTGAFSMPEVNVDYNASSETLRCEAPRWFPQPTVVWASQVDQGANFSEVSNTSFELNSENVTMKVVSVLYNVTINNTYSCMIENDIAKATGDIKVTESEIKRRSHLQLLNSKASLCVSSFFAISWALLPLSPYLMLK

As for “R347-maia human IgG1 (isotype control) (antibody)”, the Geometric Mean : Comp-APC-A in assay [1] was found to be 121; in assay [2] it was 101.
